B1: HDV Ribozyme (parent)
chain: GGCCGGCAUGGUCCCAGCCUCCUCGCUGGCGCCGGCUGGGCAACAUUCCGAGGGGACCGUCCCCUCGGUAAUGGCGAAUGGGACCCA

Variants of B1 are the subject of this data set. The data set is described as follows: self-cleavage, relative activity (ratio to wild type); higher = more cleavage; co-transcriptional.
Turning to GGCCGGCAUGGUCCCAGCCUCCUGGCUGGCGCCGGCUGGGCAACAUUCCGAGGGGACCGUCCCCUAGGUAAUGGCGAAUGGGACCCA [C24G C66A], the self-cleavage was found to be 0.0723.
Under GGCCGGCAUGGUCCCAGCCUGCUCGCUGGCGCCGGCUGGGCAACAUUCCGAGGGGACCGUCACCUCGGUAAUGGCGAAUGGGACCCA [C21G C62A] stands 0.119.
Turning to GGCCGGCAUGGUCCCAGCCUCCUCGCUGGCGCCGGCUGGGCAACAUUCUGAGGGGACCGUCCCCUCGGUAAUGGCGAAUGGGACCCG [C49U A87G], the self-cleavage worked out at 0.959.
For GGCCGGCAUGGUCCCUGCCUCCUCGCUGGCGCCGGCUGGGCAACAUUCCGAGGGGACCGUCCCCUUGGUAAUGGCGAAUGGGACCCA [A16U C66U], the self-cleavage came to 1.05.
GGUCGGCAUGGUCCCAGCCUCCUCGCUGGCGCCGGCUGGGCAACAUUCCGAGGGUACCGUCCCCUCGGUAAUGGCGAAUGGGACCCA [C3U G55U]: the self-cleavage was 0.805.
As for GGCGGGCAUGGUCCCAGCCUCCUCGCUGGCGCCGGCUGGGCAACAUUCCGAGGGGUCCGUCCCCUCGGUAAUGGCGAAUGGGACCCA [C4G A56U], the self-cleavage is 0.462.
As for GGCCGGCAUGGUCCCAGCCUCCUCUCUGGCGCCGGCUGGGCAAAAUUCCGAGGGGACCGUCCCCUCGGUAAUGGCGAAUGGGACCCA [G25U C44A], the self-cleavage was determined as 0.0852.
In the case of GGCCGGCAUGGUCCCAGCCUCGUGGCUGGCGCCGGCUGGGCAACAUUCCGAGGGGACCGUCCCCUCGGUAAUGGCGAAUGGGACCCA [C22G C24G], the self-cleavage was 0.0339.
Take GGCCGGCAUGGUCCCAGCCUCCUCGCUGGCGCCGGCUGGGCAACAUUCCUAGGGGACCGUCCCCUCGGUAAUGGCGAAUGGGACCCC [G50U A87C]: the self-cleavage worked out at 0.935.
Regarding GGCCGGCAUGGUCCCAGCCUCCUCGCUGGCGCCGGCUGGGCAACAUGCCGAGGGGACCGUCCCCUCGGUAAUGUCGAAUGGGACCCA [U47G G74U], the self-cleavage was 0.434.
As to GGCCGGCAUGGUCCCAGCUUCCUCGCUGGCGCCGGCUGGGCAACAUUCCGCGGGGACCGUCCCCUCGGUAAUGGCGAAUGGGACCCA [C19U A51C], the self-cleavage came out at 0.204.
For the variant GGCCGGCAGGGUCCCAGCCUCCUCGCUGGCGCCGGCUGGGCUACAUUCCGAGGGGACCGUCCCCUCGGUAAUGGCGAAUGGGACCCA [U9G A42U], the self-cleavage turned out to be 0.587.
Regarding GGCCGGCAUGGUCCCAGCCUCCUUGCUGGCGCCGGCUGGGCAACAUUCCGAGGGGACCGUCCCCUCGGUAAUGGCGAAUGGGACCCG [C24U A87G], the self-cleavage was 0.55.
For GGCCGGCAUGGUCCCAGCCUCUUCGCUGGCGCCGGCUGGGCAACAUUCCGAGGGGACCGUCCCCUCGGUAAUGGCGAGUGGGACCCA [C22U A78G], the self-cleavage was determined as 0.314.
With GGCCGGCAUGGUCCCAACCUCCUCGCUGGCGCCGGCUGGGCAACAGUCCGAGGGGACCGUCCCCUCGGUAAUGGCGAAUGGGACCCA [G17A U46G], the self-cleavage was 0.229.
With GGUCGGCCUGGUCCCAGCCUCCUCGCUGGCGCCGGCUGGGCAACAUUCCGAGGGGACCGUCCCCUCGGUAAUGGCGAAUGGGACCCA [C3U A8C], the self-cleavage is 0.269.
With GGCCUGUAUGGUCCCAGCCUCCUCGCUGGCGCCGGCUGGGCAACAUUCCGAGGGGACCGUCCCCUCGGUAAUGGCGAAUGGGACCCA [G5U C7U], the self-cleavage turned out to be 0.
Regarding GGCCGGCAUGGUCCCAGCCUCCUCGCUGGCGCCGGCUGGGCAGCAUUCCGAGGGGACCGUCCCCUCGGUAAUGGCGAAUCGGACCCA [A43G G80C], the self-cleavage worked out at 0.208.
As for GGCCGGCAUGGUCCCAGCCUCCUCGCUGGCGCCGGCUGGGCAACGUUCCGAGGGGACCGUCCCCUCGAUAAUGGCGAAUGGGACCCA [A45G G68A], the self-cleavage came out at 0.867.
As to GGCCGGCAUGGUCCCAGCCUCCUCGCUGGCGCUGGCUGGGCAACAUUCCGAGGGUACCGUCCCCUCGGUAAUGGCGAAUGGGACCCA [C33U G55U], the self-cleavage is 0.865.
Regarding GGCCGGCAUGGUCCCAGCCUCCUCGCUGGCGCCCGCUGGGCAACAUUCCGAGGGGACCGUCCCCUCGGUAAUGGCGAAUGGGACCAA [G34C C86A], the self-cleavage was determined as 0.13.
As for GGCCGGCAGGGUCCCAGCCUCCUCGCUGGCGCCGGCUGGGCAACAUUACGAGGGGACCGUCCCCUCGGUAAUGGCGAAUGGGACCCA [U9G C48A], the figure is 1.25.
Turning to GGCCGGCAUGGUCCCAGCCUCCUCGCUGGCGCCGGCUGGGCAACAUACCGAGGGGAGCGUCCCCUCGGUAAUGGCGAAUGGGACCCA [U47A C57G], the self-cleavage was 0.898.
In the case of GGCCGGCAUGGUCCCAACCUCCUCGCUGGCGCCGGAUGGGCAACAUUCCGAGGGGACCGUCCCCUCGGUAAUGGCGAAUGGGACCCA [G17A C36A], the self-cleavage is 0.138.
As for GGCCGGCAUGGUCCCAGCCUCCUCGCUGGCGCCGGCUGAGCAACAUUCCAAGGGGACCGUCCCCUCGGUAAUGGCGAAUGGGACCCA [G39A G50A], the self-cleavage worked out at 0.445.
As for GGCCGGCAUGGUCCCAGCCUCCUCGCUGGCGCCAGGUGGGCAACAUUCCGAGGGGACCGUCCCCUCGGUAAUGGCGAAUGGGACCCA [G34A C36G], the figure is 0.122; as for GGCCGGCAUGGUCCCAGCCUCCUCGCUGGCGCCGGCUGGGGAACAUUCGGAGGGGACCGUCCCCUCGGUAAUGGCGAAUGGGACCCA [C41G C49G], 0.597.
As for GGCCAGCAUGGUCCCAGCCUCCUCGCUGGCGCCGGCUGGGCAACAUUCCGGGGGGACCGUCCCCUCGGUAAUGGCGAAUGGGACCCA [G5A A51G], the self-cleavage is 0.203.
As for GGCCGGCAUGGUACCAGCCUCCUCGCUGGCGCCGGCUGGGCAACAUUCCGAGGGGACCGUCCCCUCGGUAAUGGCGAAUGGGACCUA [C13A C86U], the figure is 0.242; as for GGCCGGCAUGGACCCAGCCUCCUCGCUGGCGCCGGUUGGGCAACAUUCCGAGGGGACCGUCCCCUCGGUAAUGGCGAAUGGGACCCA [U12A C36U], 0.0678; as for GGCCGGCAUGGUCCCUGCCUCCUCGCUGGCGCCGGCUGUGCAACAUUCCGAGGGGACCGUCCCCUCGGUAAUGGCGAAUGGGACCCA [A16U G39U], 0.403.
Turning to GGCCGGCAUGGUCCCAGCCUCCUAGCUGGCGCCGGCUGGGCAACAUUCCGAGGGGACCGUCCCCUCGGUAAUGGCGAAUGGGACCCU [C24A A87U], the self-cleavage was found to be 0.749.

For the origin of these results see the RNAGym collection of RNA variant scans (doi:10.7554/elife.80360).
